Data taken from patent publication US20090035321A1, “Intercellular adhesion molecules and their binding ligands” (Boehringer Ingelheim Pharmaceuticals, Inc., published 2009).

Columns and labels:
[1] = molecular target: Intercellular Adhesion Molecule-1 (ICAM-1), wild type, on the cell surface (human) (UniProt P05362)
[2] = molecular target: ICAM-1 Y476/TAG (human) (UniProt P05362)
[3] = molecular target: Intercellular Adhesion Molecule-1 (ICAM-1), wild type, on the cell surface (human) (UniProt P05362); remark: listed apart in the source
[4] = molecular target: purified ICAM-1 (human) (UniProt P05362)
[5] = molecular target: ICAM-1 A115N/SV (printed A155N/SV at paragraph 410) (human) (UniProt P05362); assay: 35S-HRV14 on COS cells
[6] = molecular target: ICAM-1 S5/T (human) (UniProt P05362); assay: 35S-HRV14 on COS cells
[7] = molecular target: ICAM-1 N269QSQI/IQAEQ (human) (UniProt P05362); assay: 35S-HRV14 on COS cells
[8] = molecular target: Lymphocyte Function-associated Antigen-1 (LFA-1), on cells (human) (UniProt P20701)
[9] = molecular target: Lymphocyte Function-associated Antigen-1 (LFA-1), on cells (human) (UniProt P20701); remark: listed apart in the source

Work on monoclonal antibody RR1/1 yielded a % inhibition of PMA-stimulated PHA-lymphoblast aggregation [1] of 51 % inhibition, a % of cells expressing ICAM-1 that bind LFA-1 in the presence of RR1/1 [2] of 0% and a % of cells expressing ICAM-1 that bind LFA-1 in the presence of RR1/1 [3] of 0%. For the same substance, the binding of JY cells to ICAM-1 in plastic-bound vesicles [4] was 97 % inhibition.
“human rhinovirus 14 (HRV14) (from UniProt P03303)” was tested, and the HRV Binding % (% of wild type) [5] was 12, the HRV Binding % (% of wild type) [6] was 125 and the HRV Binding % (% of wild type) [7] was 108.
anti-LFA-1 monoclonal antibody TS1/18 was tested, and the binding of JY cells to ICAM-1 in plastic-bound vesicles [8] was 96 % inhibition.
anti-LFA-1 antibody R3.1 was tested, and the % inhibition of the mixed lymphocyte reaction [9] was 93 % inhibition.
